Measured values published in patent publication US20110027907A1 (AUCKLAND UNISERVICE, published 2011).

Target: T1, recombinant SSL7 (GL1 S. aureus Greenlane), wild type (Staphylococcus aureus)
T1 construct: also called rSSL7; SET1 GL1
Assay: co-crystal structure

B1: recombinant IgA Fc (Cys242 to Pro455 of human IgA1) (other)
chain: CHPRLSLHRPALEDLLLGSEANLTCTLTGLRDASGVTFTWTPSSGKSAVQGPPERDLCGCYSVSSVLPGCAEPWNHGKTFTCTAAYPESKTPLTATLSKSGNTFRPEVHLLPPPSEELALNELVTLTCLARGFSPKDVLVRWLQGSQELPREKYLTWASRQEPSQGTTTFAVTSILRVAAEDWKKGDTFSCMVGHEALPLAFTQKTIDRLAGKP
notes: range 242-455
Question: Does B1 bind?
Answer: Result: binds
